Source: patent publication US20210221899A1 (published 2021)

Experiments:
rat NGF = molecular target: T1, rat NGF (rat, UniProt P25427 122-241); assay: SPR (Biacore), NGF amine-coupled on chip, antibody injected
T1 construct: also called rN
Protocol: (§1) Antibody binding affinities of the antibodies against canine NGF were determined by surface plasmon resonance (SPR) on a Biacore system (Biocore Life Sciences (GE Healthcare), Uppsala, Sweden). Immobilization of canine and rat NGF were obtained by amine coupling […] NGF using N-hydroxysuccinimide (NHS)/1-Ethyl-3-(3-dimethylaminopropyl) carbodiimide (EDC) chemistry. Chips were quenched with ethanolamine and the affinity with which all candidate mAbs bound to the immobilized NGF was evaluated. Various concentrations of canine and felinized anti-NGF antibodies were injected over the NGF surfaces while the association of the antibody to the antigen and the dissociation of the formed complex were monitored in real time. Kinetic analysis was performed to obtain the equilibrium dissociation constant (KD).

canine NGF = molecular target: T2, canine NGF (canine, UniProt Q29074 110-229 (pig entry), limits assumed); assay: as above
T2 construct: The protein was secreted from CHO cells and purified; also called cNGF; canine β-NGF
T2 chain: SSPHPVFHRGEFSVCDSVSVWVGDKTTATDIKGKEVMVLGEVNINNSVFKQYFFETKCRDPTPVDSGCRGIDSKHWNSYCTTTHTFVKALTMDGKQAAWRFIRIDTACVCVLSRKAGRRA
Protocol: as §1

T1 sequence (P25427 122-241 limits assumed): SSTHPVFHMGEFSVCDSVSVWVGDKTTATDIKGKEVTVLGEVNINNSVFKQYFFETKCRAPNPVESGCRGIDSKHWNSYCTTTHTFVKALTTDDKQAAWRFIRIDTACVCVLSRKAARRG

B1: ZTS-205 (antibody, V domains shown)
VH: DVQLVESGGDLVKPGGSLRLTCVASGFTFSTYGINWVRQAPGKGLQWVAYISSGGSSTYYADPVKGRFTISRDNAKNMLYLQMNNLKTEDTATYYCAGSRYTYAYGGGYEFHFWGQGTLVTVSS
VL: QAVLNQPSSVSGALGQRVTISCSGSTMDIDIFGVSWYQQIPGMAPKTIIDSDGDRPSGVPDRFSGSKSGSTGTLTITGLQAEDEADYYCQSGDSTLGALAIFGGGTHVTVLG
notes: Felinized 48L2; also called fel48L2 1.1; fel48L21.1
Kd (rat NGF): 277 pM
koff (rat NGF): 0.00029 s⁻¹
kon (rat NGF): 672000 M⁻¹ s⁻¹
Kd (canine NGF): 111 pM
koff (canine NGF): 8.93e-05 s⁻¹
kon (canine NGF): 426000 M⁻¹ s⁻¹
